Reference: patent US20230118307A1, “THERAPEUTIC USE OF LONG-ACTING CONJUGATE OF TRIPLE AGONIST HAVING ACTIVITIES TO ALL OF GLUCAGON/GLP-1/GIP RECEPTORS FOR LUNG DISEASE” (HANMI PHARM. CO., LTD., priority 2020, published 2023)
Positions of bridges follow the written chain, without caps; N, C: chain ends. Non-standard residues stand in square brackets, D forms with d. No end group written: not given here. *: point of attachment. Acetyl(2-(4-imidazolyl)) = O=C(Cc1c[nH]cn1)*; Aib = CC(C)(N)C(=O)O

Tests used:
[1] = tested on: IPF mice (C57BL/6 mice treated with BLM); experiment: Lung fibrosis in bleomycin (BLM) mice, Masson's trichrome staining; type: in vivo; details: BLM 1.5 U/head; 2 weeks; conjugate 3.9 nmol/kg Q2D subcutaneous; pirfenidone 300 mg/kg QD oral; ambroxol 45 mg/kg BID peritoneal; FIG. 5
Description: In order to confirm the in vivo efficacy of the long-acting conjugate of the triple agonist prepared in the above Examples for improving pulmonary fibrosis, particularly idiopathic pulmonary fibrosis (IPF), which is a representative pulmonary fibrosis, bleomycin (BLM) mice were used. It is known that, when bleomycin is administered intratracheally, the epithelial-mesenchymal transition occurs by damaging DNA of alveolar epithelial cells, which induces idiopathic fibrosis. In addition, it is known that when the BLM treatment dose is increased above a certain level, the survival rate of the mice is reduced due to severe lung damage caused by idiopathic fibrosis. […]
IPF mice prepared by treating C57BL/6 mice (ORIENT Bio, Busan, Korea) with BLM at 1.5 U/head were divided into an excipient control group, a long-acting conjugate of triple agonist administration group (3.9 nmol/kg, Q2D, subcutaneous), a pirfenidone administration group (300 mg/kg, QD, oral), and an ambroxol administration group (45 mg/kg, BID, peritoneal), repeated administration was performed for 2 weeks. After 2 weeks of repeated administration, lung tissue of each mouse was taken by autopsy, and the degree of fibrosis in the lung tissue was evaluated by Masson's trichrome staining. Statistical treatment evaluated the efficacy of the long-acting conjugate of the triple agonist using one-way ANOVA (*-***p<0.05-0.001).

human GCG receptor = human GCG receptor (human, UniProt P47871 26-477); experiment: cell-based or functional assay
human GCG receptor, sequence (P47871 26-477): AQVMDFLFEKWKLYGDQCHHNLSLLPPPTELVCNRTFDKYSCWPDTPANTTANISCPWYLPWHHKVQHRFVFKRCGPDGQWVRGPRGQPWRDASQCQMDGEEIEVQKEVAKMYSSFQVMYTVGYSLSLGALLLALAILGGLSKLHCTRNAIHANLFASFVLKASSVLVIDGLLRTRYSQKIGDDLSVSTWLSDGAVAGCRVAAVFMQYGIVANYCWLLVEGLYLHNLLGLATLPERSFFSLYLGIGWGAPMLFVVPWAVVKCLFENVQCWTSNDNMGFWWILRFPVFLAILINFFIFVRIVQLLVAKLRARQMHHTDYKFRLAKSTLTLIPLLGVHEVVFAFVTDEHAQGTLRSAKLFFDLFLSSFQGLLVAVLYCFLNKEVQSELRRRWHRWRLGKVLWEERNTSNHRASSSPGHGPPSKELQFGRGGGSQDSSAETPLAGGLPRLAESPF

human GIP receptor = biological target: T1, human GIP receptor (human, UniProt P48546 22-466); experiment: cell-based or functional assay
T1 sequence (looked up): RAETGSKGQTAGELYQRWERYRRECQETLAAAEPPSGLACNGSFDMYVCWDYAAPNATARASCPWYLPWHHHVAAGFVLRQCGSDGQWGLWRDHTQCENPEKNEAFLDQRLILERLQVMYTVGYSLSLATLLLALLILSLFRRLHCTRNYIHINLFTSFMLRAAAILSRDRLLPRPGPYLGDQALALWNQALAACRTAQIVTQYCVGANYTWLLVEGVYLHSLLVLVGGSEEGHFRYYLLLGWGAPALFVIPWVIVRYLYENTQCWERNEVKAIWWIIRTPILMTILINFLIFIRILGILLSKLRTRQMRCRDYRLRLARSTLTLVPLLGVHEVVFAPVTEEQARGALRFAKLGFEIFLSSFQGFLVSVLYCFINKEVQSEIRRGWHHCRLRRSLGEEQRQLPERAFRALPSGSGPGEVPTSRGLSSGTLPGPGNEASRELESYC

human GLP-1 receptor = human GLP-1 receptor (human, UniProt P43220 24-463); experiment: cell-based or functional assay

Row | Molecule | positive area of Masson's trichrome staining in the lung tissue (degree of fibrosis) [1] | In vitro Activity Compared to Native Peptide (%) vs. Glucagon (human GCG receptor) | In vitro Activity Compared to Native Peptide (%) vs. GIP (human GIP receptor) | In vitro Activity Compared to Native Peptide (%) vs. GLP-1 (human GLP-1 receptor)
1 | Nc1c(Br)cc(Br)cc1CN[C@H]1CC[C@H](O)CC1 [ambroxol, reference compound] | same level of efficacy as the long-acting conjugate of the triple agonist |  |  | 
2 | H[Aib]QGTFTSDYSIAMDEIHQKDFVNWLLAQKC (bridge 16-20; also: ring type not given here) [triple agonist of SEQ ID NO: 33] |  | < 0.1% | 10.4% | 24.5%
3 | Y[Aib]QGTFTSDYSKCLDEKRAKEFVQWLLDHHPSSGQPPPS (bridge 16-20) [triple agonist of SEQ ID NO: 22] |  | 140% | 59.7% | 20.1%
4 | H[Aib]QGTFTSDYSKYLDERACQDFVQWLLDQGGPSSGAPPPS [triple agonist of SEQ ID NO: 27] |  | 0.8% | 0.9% | 83.1%
5 | H[Aib]QGTFTSDYSKYLDEKAQKEFVQWLLDTC (bridge 16-20) [triple agonist of SEQ ID NO: 30] |  | 0.7% | 0.8% | 142%
6 | H[Aib]QGTFTSDCSKYLDSRAAQDFVQWLLDGGPSSGAPPPS [triple agonist of SEQ ID NO: 26] |  | 0.2% | < 0.1% | 64.5%
7 | Y[Aib]QGTFTSDYSKYLDECRAKEFVQWLLAQKGKKNDWKHNIT (bridge 16-20) [triple agonist of SEQ ID NO: 23] |  | 9.3% | < 0.1% | 4.01%
8 | H[Aib]QGTFTSDYSKYLDEKAAKEFVQWLLNTC (bridge 16-20) [triple agonist of SEQ ID NO: 29] |  | 6% | < 0.1% | 38.5%
9 | Y[Aib]QGTFTSDYSKYLDECRAKEFVQWLLDHHPSSGQPPPS (bridge 16-20) [triple agonist of SEQ ID NO: 21] |  | 267% | 22.7% | 17.8%
10 | H[Aib]QGTFTSDYSKYLDEKACKDFVQWLLDGGPSSGAPPPS (bridge 16-20; also: ring type not given here) [triple agonist of SEQ ID NO: 32] |  | 1.7% | 8.8% | 151%
11 | [Acetyl(2-(4-imidazolyl))]GQGTFTSDLSIQYDSEHQRDFIEWLKDTGPSSGAPPPSHG [triple agonist of SEQ ID NO: 19] |  | < 0.1% | < 0.1% | < 0.1%
12 | Y[Aib]QGTFTSDYSKYLDECRAKEFVQWLKNGGPSSGAPPPS (bridge 16-20) [triple agonist of SEQ ID NO: 24] |  | 9.3% | < 0.1% | 41.2%
13 | [Acetyl(2-(4-imidazolyl))]GQGTFTSDLSKQMDEERAREFIEWLLAQKPSSGAPPPSHG [triple agonist of SEQ ID NO: 17] |  | < 0.1% | < 0.1% | 0.2%
14 | H[Aib]QGTFTSDYSKYLDEKRAQEFVCWLLAQKGKKNDWKHNIT [triple agonist of SEQ ID NO: 28] |  | 1.6% | < 0.1% | 17.2%
15 | H[Aib]QGTFTSDVSSYLLGQAAKQFIAWLVKGGGPSSGAPPPSC [triple agonist of SEQ ID NO: 3] |  | < 0.1% | < 0.1% | 1.8%
16 | [Acetyl(2-(4-imidazolyl))]GQGTFTSDLSIQYEEEAQQDFVEWLKDTGPSSGAPPPSHG [triple agonist of SEQ ID NO: 20] |  | < 0.1% | < 0.1% | < 0.1%
17 | H[Aib]QGTFTSDYSKYLDEKACKEFVQWLLAQ (bridge 16-20) [triple agonist of SEQ ID NO: 31] |  | 2.2% | 2.4% | 135%
18 | [Acetyl(2-(4-imidazolyl))]GQGTFTSDLSKQMDSEAQQLFIEWLKNGGPSSGAPPPSHG [triple agonist of SEQ ID NO: 16] |  | < 0.1% | < 0.1% | 2.1%
19 | H[Aib]QGTFTSDCSKYLDERAAQDFVQWLLDGGPSSGAPPPS [triple agonist of SEQ ID NO: 25] |  | 0.1% | < 0.1% | 82.6%
20 | [Acetyl(2-(4-imidazolyl))]GQGTFTSDLSKQMDSERAREFIEWLKNTGPSSGAPPPSHG [triple agonist of SEQ ID NO: 18] |  | < 0.1% | < 0.1% | < 0.1%
